# Data reported in paper doi:10.1101/2024.03.17.585388.
# Biological target: NTD_GS_CTD (NP NTD and CTD joined by a 14 residue artificial linker, no tails) (SARS-CoV-2)
# Assay: […]
substance,measurement,value
"NTD_GS_CTD (NP NTD and CTD joined by a 14 residue artificial linker, no tails) (domain or fragment)",stoichiometry N,2
